Article PMC9365671, “Synergistic autoinhibition and activation mechanisms control kinesin-1 motor activity” (Cell reports, 2022)

Experiments:
Assay in all cases: quantitative Coomassie blue staining of the co-purified complex; KIF5-mScarlet-StrepII and His-FLAG-KLC1 co-expressed in Sf9, purified on Streptactin XT and by SEC
Details in all cases: partners not purified
[1] = molecular target: T1, full-length human KIF5A-mScarlet-StrepII (human, UniProt Q12840 1-1032)
T1 construct: kinesin heavy chain KIF5A, human, cDNA BC146670, full length; 2x Prescission protease sites lie between KIF5A and mScarlet; also called KIF5A dimer; KHC; source: Sf9 (baculovirus), purified (Streptactin XT, SEC); also co-expressed with KLC1 and co-purified; not shown: mScarlet, C-terminal, kept
T1 sequence (looked up): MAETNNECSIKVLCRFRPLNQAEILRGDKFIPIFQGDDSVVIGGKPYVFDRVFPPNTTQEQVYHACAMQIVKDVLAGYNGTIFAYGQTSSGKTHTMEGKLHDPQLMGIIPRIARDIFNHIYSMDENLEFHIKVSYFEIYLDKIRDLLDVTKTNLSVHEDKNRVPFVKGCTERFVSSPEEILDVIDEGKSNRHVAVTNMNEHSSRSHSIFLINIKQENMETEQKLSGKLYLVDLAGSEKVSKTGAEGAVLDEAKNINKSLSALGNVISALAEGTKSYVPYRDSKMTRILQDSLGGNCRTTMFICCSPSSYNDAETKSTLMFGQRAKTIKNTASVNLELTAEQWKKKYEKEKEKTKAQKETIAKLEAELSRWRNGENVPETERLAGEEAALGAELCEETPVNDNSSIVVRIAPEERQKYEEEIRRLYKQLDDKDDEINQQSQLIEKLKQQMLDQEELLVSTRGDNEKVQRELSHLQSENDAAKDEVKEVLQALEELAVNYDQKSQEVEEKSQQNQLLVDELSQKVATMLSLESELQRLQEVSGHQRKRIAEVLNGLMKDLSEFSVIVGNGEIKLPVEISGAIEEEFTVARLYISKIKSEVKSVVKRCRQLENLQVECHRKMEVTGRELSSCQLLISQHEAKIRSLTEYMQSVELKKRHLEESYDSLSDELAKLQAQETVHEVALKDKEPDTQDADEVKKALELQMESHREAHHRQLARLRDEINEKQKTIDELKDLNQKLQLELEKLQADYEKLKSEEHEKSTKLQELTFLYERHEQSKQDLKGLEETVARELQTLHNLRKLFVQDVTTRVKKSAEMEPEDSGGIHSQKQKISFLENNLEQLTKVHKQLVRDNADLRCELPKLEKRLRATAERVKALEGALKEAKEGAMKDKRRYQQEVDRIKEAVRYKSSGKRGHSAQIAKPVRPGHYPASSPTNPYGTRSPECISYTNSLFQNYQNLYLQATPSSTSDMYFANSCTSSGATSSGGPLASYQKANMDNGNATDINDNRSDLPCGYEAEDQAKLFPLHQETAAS

[2] = molecular target: T2, full-length human KIF5B-mScarlet-StrepII (human, UniProt P33176 1-963)
T2 construct: kinesin heavy chain KIF5B, human, cDNA BC126281, full length (aa 1-963); 2x Prescission protease sites lie between KIF5B and mScarlet; also called KIF5B-WT; wild-type KIF5B; source: Sf9 (baculovirus), purified (Streptactin XT, SEC); also co-expressed with KLC1 and co-purified; not shown: mScarlet, C-terminal, kept
T2 sequence (looked up): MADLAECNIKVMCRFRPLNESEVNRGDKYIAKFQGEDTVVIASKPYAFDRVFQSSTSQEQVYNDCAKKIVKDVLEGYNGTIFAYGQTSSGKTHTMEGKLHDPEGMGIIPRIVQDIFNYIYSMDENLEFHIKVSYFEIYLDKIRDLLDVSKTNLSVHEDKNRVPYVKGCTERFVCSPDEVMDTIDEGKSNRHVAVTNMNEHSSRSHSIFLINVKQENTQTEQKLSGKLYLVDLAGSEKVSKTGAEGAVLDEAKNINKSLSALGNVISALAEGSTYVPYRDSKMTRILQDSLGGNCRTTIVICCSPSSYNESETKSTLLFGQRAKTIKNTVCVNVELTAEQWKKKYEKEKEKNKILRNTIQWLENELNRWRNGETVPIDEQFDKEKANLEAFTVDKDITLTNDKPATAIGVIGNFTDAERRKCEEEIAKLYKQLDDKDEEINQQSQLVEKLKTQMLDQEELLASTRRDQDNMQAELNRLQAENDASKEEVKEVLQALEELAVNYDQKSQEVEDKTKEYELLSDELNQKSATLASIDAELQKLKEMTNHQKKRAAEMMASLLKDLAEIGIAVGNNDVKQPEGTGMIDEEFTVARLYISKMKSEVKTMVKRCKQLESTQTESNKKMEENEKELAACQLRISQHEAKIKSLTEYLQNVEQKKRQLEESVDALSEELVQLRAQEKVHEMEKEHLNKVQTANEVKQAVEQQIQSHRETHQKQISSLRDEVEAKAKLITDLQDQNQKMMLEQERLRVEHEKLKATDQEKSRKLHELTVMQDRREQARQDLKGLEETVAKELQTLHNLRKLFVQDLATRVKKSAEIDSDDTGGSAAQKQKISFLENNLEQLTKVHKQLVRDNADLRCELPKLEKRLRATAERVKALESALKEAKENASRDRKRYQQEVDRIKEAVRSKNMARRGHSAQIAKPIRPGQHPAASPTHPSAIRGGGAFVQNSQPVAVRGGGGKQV

[3] = molecular target: T3, full-length human KIF5C-mScarlet-StrepII (human, UniProt O60282 1-957)
T3 construct: kinesin heavy chain KIF5C, human, cDNA BC110287, full length; 2x Prescission protease sites lie between KIF5C and mScarlet; also called KHC; source: Sf9 (baculovirus), purified (Streptactin XT, SEC); also co-expressed with KLC1 and co-purified; not shown: mScarlet, C-terminal, kept
T3 sequence (looked up): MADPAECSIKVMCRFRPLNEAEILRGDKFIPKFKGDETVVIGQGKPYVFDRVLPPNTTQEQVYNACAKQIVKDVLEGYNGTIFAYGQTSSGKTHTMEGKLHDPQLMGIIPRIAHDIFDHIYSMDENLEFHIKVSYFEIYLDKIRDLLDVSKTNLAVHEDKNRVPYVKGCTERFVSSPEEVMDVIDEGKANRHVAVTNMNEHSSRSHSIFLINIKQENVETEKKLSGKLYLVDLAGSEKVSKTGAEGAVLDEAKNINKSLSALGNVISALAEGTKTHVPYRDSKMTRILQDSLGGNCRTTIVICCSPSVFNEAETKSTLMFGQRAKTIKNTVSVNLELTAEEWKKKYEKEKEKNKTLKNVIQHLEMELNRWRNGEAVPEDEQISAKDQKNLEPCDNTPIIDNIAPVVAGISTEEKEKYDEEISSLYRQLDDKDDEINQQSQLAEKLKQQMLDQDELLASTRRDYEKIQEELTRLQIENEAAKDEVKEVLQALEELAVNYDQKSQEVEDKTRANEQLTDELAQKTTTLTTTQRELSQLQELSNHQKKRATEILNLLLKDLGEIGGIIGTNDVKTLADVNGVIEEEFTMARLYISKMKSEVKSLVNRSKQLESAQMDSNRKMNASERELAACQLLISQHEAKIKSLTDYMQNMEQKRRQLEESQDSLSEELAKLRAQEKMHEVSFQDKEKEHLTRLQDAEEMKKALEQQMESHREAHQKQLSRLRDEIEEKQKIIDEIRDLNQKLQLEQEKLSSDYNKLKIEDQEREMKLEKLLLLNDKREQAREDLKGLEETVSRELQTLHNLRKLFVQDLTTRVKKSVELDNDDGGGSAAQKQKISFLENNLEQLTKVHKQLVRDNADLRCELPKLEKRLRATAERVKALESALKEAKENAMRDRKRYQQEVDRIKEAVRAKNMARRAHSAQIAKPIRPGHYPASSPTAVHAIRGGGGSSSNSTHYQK

Measured: stoichiometry N

B1: 6xHis-FLAG-human KLC1 (co-expressed with KIF5) (natural protein, UniProt Q07866 1-573, looked up)
chain: MYDNMSTMVYIKEDKLEKLTQDEIISKTKQVIQGLEALKNEHNSILQSLLETLKCLKKDDESNLVEEKSNMIRKSLEMLELGLSEAQVMMALSNHLNAVESEKQKLRAQVRRLCQENQWLRDELANTQQKLQKSEQSVAQLEEEKKHLEFMNQLKKYDDDISPSEDKDTDSTKEPLDDLFPNDEDDPGQGIQQQHSSAAAAAQQGGYEIPARLRTLHNLVIQYASQGRYEVAVPLCKQALEDLEKTSGHDHPDVATMLNILALVYRDQNKYKDAANLLNDALAIREKTLGKDHPAVAATLNNLAVLYGKRGKYKEAEPLCKRALEIREKVLGKDHPDVAKQLNNLALLCQNQGKYEEVEYYYQRALEIYQTKLGPDDPNVAKTKNNLASCYLKQGKFKQAETLYKEILTRAHEREFGSVDDENKPIWMHAEEREECKGKQKDGTSFGEYGGWYKACKVDSPTVTTTLKNLGALYRRQGKFEAAETLEEAAMRSRKQGLDNVHKQRVAEVLNDPENMEKRRSRESLNVDVVKYESGPDGGEEVSMSVEWNGGVSGRASFCGKRQQQQWPGRRHR
notes: kinesin light chain 1, human, cDNA BC008881; also called kinesin light chain; source: Sf9, co-expressed with KIF5 from a multi-gene baculovirus, co-purified (Streptactin XT, SEC)
~0.8 KLC1 per KHC: all assays above
